In the experiment the target is T1, rhFrizzled-4/FC Chimera (human, UniProt Q9ULV1 37-212).
T1 sequence (looked up): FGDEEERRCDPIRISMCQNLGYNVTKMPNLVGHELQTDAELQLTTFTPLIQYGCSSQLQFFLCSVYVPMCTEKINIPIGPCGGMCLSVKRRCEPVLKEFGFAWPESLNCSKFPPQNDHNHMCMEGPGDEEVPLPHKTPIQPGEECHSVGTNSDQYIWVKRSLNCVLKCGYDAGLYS
The experiment can be described thus: cell-based or functional assay.

B1: human recombinant norrin (ligand, UniProt Q00604 25-133, looked up)
chain: KTDSSFIMDSDPRRCMRHHYVDSISHPLYKCSSKMVLLARCEGHCSQASRSEPLVSFSTVLKQPFRSSCHCCRPQTSKLKALRLRCSGGMRLTATYRYILSCHCEECNS
In the case of B1, the “TCF/LEF firefly luciferase reporter in HEK-293 cells transfected with FZD4 and LRP5; average EC50 of 3 assays with human norrin” value turned out to be 0.036 mg/L.

(Values after paper doi:10.1101/2025.10.15.682582, “A recombinant norrin-derived growth factor retains the complete multifunctionality of human norrin” (bioRxiv, 2025).)
